Laboratory results reported in US7074905.
Values belong to the substance of their own block, whether it stands above or below them.

Assays:
[1] = target: soluble sc-DR2/MBP-Cκ fusion molecule (human kappa constant domain) from pDRHK-transfected CHO cells (human); experiment: sandwich ELISA, L227 capture, L243-HRP probe; cell line CHOA5
[2] = target: soluble sc-DR2/MBP-Cκ fusion molecule (human kappa constant domain) from pDRHK-transfected CHO cells (human); experiment: sandwich ELISA, anti-human kappa capture, L243-HRP probe; cell line CHOE 12
[3] = target: soluble sc-DR2/MBP-Cκ fusion molecule (human kappa constant domain) from pDRHK-transfected CHO cells (human); experiment: sandwich ELISA, L227 capture, L243-HRP probe; cell line CHOE 12
[4] = target: soluble sc-DR2/MBP-Cκ fusion molecule (human kappa constant domain) from pDRHK-transfected CHO cells (human); experiment: sandwich ELISA, anti-human kappa capture, L243-HRP probe; cell line CHOA5
[5] = target: sc-IA^d/OVA-Cκ fusion molecule (sc-IA^d/OVA fused to the mouse kappa constant domain), from pIADK-transfected NSO cells (murine; mouse); experiment: cell-based or functional assay
[6] = target: soluble sc-IA^d/OVA produced in SF9 insect cells (baculovirus) (murine); experiment: cell-based or functional assay
[7] = target: sc-IA^d/gD (sc-IA^d fusion protein carrying the gD 246-261 peptide), from insect cells (HSV-1; murine); experiment: cell-based or functional assay
[8] = target: soluble sc-IA^d/OVA produced in SF9 insect cells (baculovirus) (murine); experiment: IA^d-specific sandwich ELISA, M5/114 capture, biotin-AMS-32.1 probe; sc-IA^d/OVA from insect cell culture (positive control)
[9] = target: soluble sc-IA^d/OVA secreted by SCE1-transfected NSO cells (murine); experiment: IA^d-specific sandwich ELISA, M5/114 capture, biotin-AMS-32.1 probe; undiluted culture supernatant of E11 (SCE1 transfectant)
[10] = target: soluble sc-IA^d/OVA secreted by SCE1-transfected NSO cells (murine); experiment: IA^d-specific sandwich ELISA, M5/114 capture, biotin-AMS-32.1 probe; undiluted culture supernatant of E10 (SCE1 transfectant)

soluble sc-DR2/MBP-Cκ fusion molecule (human kappa constant domain) from pDRHK-transfected CHO cells (human), sequence (P02686 other isoform, or with tags, fused parts or gaps): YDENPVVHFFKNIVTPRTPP

ELISA Readings (Absorbance) [1]: 0.434
ELISA Readings (Absorbance) [2]: 1.06
ELISA Readings (Absorbance) [3]: 0.245
ELISA Readings (Absorbance) [4]: 1.45
Substance: L243 mAb (ATCC HB-55) (antibody)

Substance: T-cell receptor of the murine T-cell hybridoma DO11.10 (TCR)
DO11.10 IL-2 Released (pg/well) [5]: 500 pg/well
DO11.10 IL-2 Released (pg/well) [6]: 528 pg/well
DO11.10 IL-2 Released (pg/well) [7]: 0 pg/well

Absorbance [8]: 2.44
Absorbance [9]: 0.96
Absorbance [10]: 0.781
Substance: anti-IA^d mAb AMS-32.1 (PharMingen) (antibody)
